Series [1] concerns the target T1, GST-NFAT1(1-415) fusion protein (entire NFAT1 regulatory domain) expressed in bacterial cells.
T1 sequence (Q13469 whole entry, species assumed, looked up): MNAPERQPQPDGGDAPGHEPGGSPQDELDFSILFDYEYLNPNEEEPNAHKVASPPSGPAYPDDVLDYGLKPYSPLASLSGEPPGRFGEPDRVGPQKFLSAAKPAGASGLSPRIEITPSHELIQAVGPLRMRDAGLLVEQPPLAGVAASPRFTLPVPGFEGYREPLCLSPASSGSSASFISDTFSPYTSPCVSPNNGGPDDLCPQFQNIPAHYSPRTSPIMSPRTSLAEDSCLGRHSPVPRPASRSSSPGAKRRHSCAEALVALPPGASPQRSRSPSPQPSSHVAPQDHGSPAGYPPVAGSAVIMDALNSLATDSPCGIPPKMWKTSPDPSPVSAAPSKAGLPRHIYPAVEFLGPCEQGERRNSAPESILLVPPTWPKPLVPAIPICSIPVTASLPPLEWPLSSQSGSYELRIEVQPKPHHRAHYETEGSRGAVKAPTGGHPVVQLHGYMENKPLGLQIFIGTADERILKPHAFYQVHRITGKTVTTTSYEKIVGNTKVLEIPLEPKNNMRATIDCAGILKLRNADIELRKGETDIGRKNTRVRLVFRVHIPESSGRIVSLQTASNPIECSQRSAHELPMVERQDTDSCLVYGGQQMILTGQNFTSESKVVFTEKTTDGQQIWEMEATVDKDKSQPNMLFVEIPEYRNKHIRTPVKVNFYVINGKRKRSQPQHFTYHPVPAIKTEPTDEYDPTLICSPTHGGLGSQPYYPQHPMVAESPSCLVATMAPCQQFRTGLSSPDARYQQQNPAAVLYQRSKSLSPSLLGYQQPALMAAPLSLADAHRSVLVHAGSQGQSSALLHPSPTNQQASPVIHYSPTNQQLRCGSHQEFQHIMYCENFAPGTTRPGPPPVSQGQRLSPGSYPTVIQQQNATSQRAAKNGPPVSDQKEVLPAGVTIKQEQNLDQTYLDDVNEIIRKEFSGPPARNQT

Series [2] deals with T2, GST-fused peptide corresponding to the SP-2 motif (amino acids 206-237) of NFAT1, wild type.
T2 sequence (Q13469 whole entry, species assumed, looked up): T1 sequence (Q13469 whole entry, species assumed, looked up)

In series [3] the target is GST-fused peptide corresponding to the SP-3 motif (amino acids 264-295) of NFAT1, wild type.
Series [4] deals with GST-fused SP-3 peptide of NFAT1 (amino acids 264-295) with Ser>Ala substitutions in the serines phosphorylated in cells.

B1: FLAG-tagged DYRK2 expressed in HEK293 cells and immunoprecipitated with anti-FLAG antibody (protein)
chain: MNDHLHVGSHAHGQIQVQQLFEDNSNKRTVLTTQPNGLTTVGKTGLPVVPERQLDSIHRRQGSSTSLKSMEGMGKVKATPMTPEQAMKQYMQKLTAFEHHEIFSYPEIYFLGLNAKKRQGMTGGPNNGGYDDDQGSYVQVPHDHVAYRYEVLKVIGKGSFGQVVKAYDHKVHQHVALKMVRNEKRFHRQAAEEIRILEHLRKQDKDNTMNVIHMLENFTFRNHICMTFELLSMNLYELIKKNKFQGFSLPLVRKFAHSILQCLDALHKNRIIHCDLKPENILLKQQGRSGIKVIDFGSSCYEHQRVYTYIQSRFYRAPEVILGARYGMPIDMWSLGCILAELLTGYPLLPGEDEGDQLACMIELLGMPSQKLLDASKRAKNFVSSKGYPRYCTVTTLSDGSVVLNGGRSRRGKLRGPPESREWGNALKGCDDPLFLDFLKQCLEWDPAVRMTPGQALRHPWLRRRLPKPPTGEKTSVKRITESTGAITSISKLPPPSSSASKLRTNLAQMTDANGNIQQRTVLPKLVS
On to B1, for which the “in vitro kinase assay, phosphorylation of GST-NFAT1 (1-415) (autoradiography)” value (from here on “in vitro kinase assay … (autoradiography)”) in series [1] was “Three novel candidates-PRKG1, DYRK2 and IRAK4-showed strong activity in this assay”. Further, the “in vitro kinase assay, phosphorylation of GST-peptide” value in series [2] and in series [3] was “phosphorylated peptides corresponding to the conserved SP-3 but not the SP-2 motif of the NFAT regulatory domain in vitro” in each case.

B2: recombinant DYRK2 protein kinase (Upstate Biotechnology), bacterially expressed (protein)
chain: B1 chain
B2: the “in vitro kinase assay with recombinant kinase, phosphorylation of GST-peptide” value in series [4] is “neither kinase phosphorylated an SP-3 peptide with Ser>Ala substitutions in the specific serine residues known to be phosphorylated in cells”; in series [3] it was “DYRK2 and DYRK1A both displayed strong and selective kinase activity towards the SP-3 motif of NFAT1”.

B3: FLAG-tagged PRKG1 expressed in HEK293 cells and immunoprecipitated with anti-FLAG antibody (protein)
chain: MSELEEDFAKILMLKEERIKELEKRLSEKEEEIQELKRKLHKCQSVLPVPSTHIGPRTTRAQGISAEPQTYRSFHDLRQAFRKFTKSERSKDLIKEAILDNDFMKNLELSQIQEIVDCMYPVEYGKDSCIIKEGDVGSLVYVMEDGKVEVTKEGVKLCTMGPGKVFGELAILYNCTRTATVKTLVNVKLWAIDRQCFQTIMMRTGLIKHTEYMEFLKSVPTFQSLPEEILSKLADVLEETHYENGEYIIRQGARGDTFFIISKGTVNVTREDSPSEDPVFLRTLGKGDWFGEKALQGEDVRTANVIAAEAVTCLVIDRDSFKHLIGGLDDVSNKAYEDAEAKAKYEAEAAFFANLKLSDFNIIDTLGVGGFGRVELVQLKSEESKTFAMKILKKRHIVDTRQQEHIRSEKQIMQGAHSDFIVRLYRTFKDSKYLYMLMEACLGGELWTILRDRGSFEDSTTRFYTACVVEAFAYLHSKGIIYRDLKPENLILDHRGYAKLVDFGFAKKIGFGKKTWTFCGTPEYVAPEIILNKGHDISADYWSLGILMYELLTGSPPFSGPDPMKTYNIILRGIDMIEFPKKIAKNAANLIKKLCRDNPSERLGNLKNGVKDIQKHKWFEGFNWEGLRKGTLTPPIIPSVASPTDTSNFDSFPEDNDEPPPDDNSGWDIDF
For B3, the “in vitro kinase assay … (autoradiography)” value in series [1] is “Three novel candidates-PRKG1, DYRK2 and IRAK4-showed strong activity in this assay”.

B4: FLAG-tagged IRAK4 expressed in HEK293 cells and immunoprecipitated with anti-FLAG antibody (protein)
chain: MNKPITPSTYVRCLNVGLIRKLSDFIDPQEGWKKLAVAIKKPSGDDRYNQFHIRRFEALLQTGKSPTSELLFDWGTTNCTVGDLVDLLIQNEFFAPASLLLPDAVPKTANTLPSKEAITVQQKQMPFCDKDRTLMTPVQNLEQSYMPPDSSSPENKSLEVSDTRFHSFSFYELKNVTNNFDERPISVGGNKMGEGGFGVVYKGYVNNTTVAVKKLAAMVDITTEELKQQFDQEIKVMAKCQHENLVELLGFSSDGDDLCLVYVYMPNGSLLDRLSCLDGTPPLSWHMRCKIAQGAANGINFLHENHHIHRDIKSANILLDEAFTAKISDFGLARASEKFAQTVMTSRIVGTTAYMAPEALRGEITPKSDIYSFGVVLLEIITGLPAVDEHREPQLLLDIKEEIEDEEKTIEDYIDKKMNDADSTSVEAMYSVASQCLHEKKNKRPDIKKVQQLLQEMTAS
For B4, the “in vitro kinase assay … (autoradiography)” value in series [1] was “Three novel candidates-PRKG1, DYRK2 and IRAK4-showed strong activity in this assay”.

The values are drawn from patent US20090178146.
